{"source": "patent US20240228986A1", "about": "“ENGINEERED CELLS, ENZYMES, AND METHODS FOR PRODUCING CANNABINOIDS” (priority 2021, published 2024)", "molecules": {"B1": {"name": "GPS1.1-F11-MPT4: fusion of GPS1.1 and MPT4 via F11 linker, SEQ ID NO: 16 (protein)", "chain": "MSKAKFESVFPRISEELVQLLRDEGLPQDAVQWFSDSLQYNCVGGKLNRGLSVVDTYQLLTGKKELDDEEYYRLALLGWLIELLQAFWLVSDDIMDESKTRRGQPCWYLKPKVGMIAIWDAFMLESGIYILLKKHFRQEKYYIDLVELFHDISFKTELGQLVDLLTAPEDEVDLNRFSLDKHSFIVRYKTAYYSFYLPVVLAMYVAGITNPKDLQQAMDVLIPLGEYFQVQDDYLDNFGDPEFIGKIGTDIQDNKCSWLVNKALQKATPEQRQILEDNYGVKDKSKELVIKKLYDDMKIEQDYLDYEEEVVGDIKKKIEQVDESRGFKKEVLNAFLAKIYKRQKGGAEAAAKEAAAKAGGSGGGSGGGGSGGSGGGGSGGGGSMSDNSIATKILNFGHTCWKLQRPYVVKGMISIACGLFGRELFNNRHLFSWGLMWKAFFALVPILSFNFFAAIMNQIYDVDIDRINKPDLPLVSGEMSIETAWILSIIVALTGLIVTIKLKSAPLFVFIYIFGIFAGFAYSVPPIRWKQYPFTNFLITISSHVGLAFTSYSATTSALGLPFVWRPAFSFIIAFMTVMGMTIAFAKDISDIEGDAKYGVSTVATKLGARNMTFVVSGVLLLNYLVSISIGIIWPQVFKSNIMILSHAILAFCLIFQTRELALANYASAPSRQFFEFIWLLYYAEYFVYVFI", "modifications": "GPS1.1-F11-MPT4, geranyl diphosphate synthase, membrane-bound prenyltransferase fusion protein"}}, "assay_type_in_all_cases": "cell-based, Yarrowia", "key": {"olivetolic acid [1]": {"system": "olivetolic acid", "test": "Fusions of different GPSs with MPT4, in vivo assay (Example 7)", "conditions": "1 mM olivetolic acid, 72 h quench", "procedure": "As described below, plasmids pCL-SE-0337, 0406, 0452 and 0453 were transformed into strain sCL-SE-0128. Multiple colonies per transformation were precultured for 24 h in YNB containing glycerol (2%), casamino acids (0.5%), and MES (100 mM pH 6.5). Pre-culture was used to inoculate assay medium comprised of YNB containing glycerol (2%), casamino acids (0.5%), MES (100 mM pH 6.5), and olivetolic acid (1 mM). Cultures were quenched after 72 h total growth and assayed for CBGA and F-CBGA. Averages and standard deviations were calculated from replicates.\nHowever, sCL-SE-0128 expresses HMGR and GPS1.1 to increase intracellular GPP levels for prenylation of OA to CBGA. The plasmids that were transformed contain a gene expressing a fusion between two different GPSs and a prenyl-transferase. The same linker is used for all constructs. […] Additionally, as illustrated by GPS2 (pCL-SE-0453), certain GPS-MPT combinations result in very high CBGA/ FCBGA ratios.\n(§1) Overnight YPD (10 g/L yeast extract, 20 g/L peptone, 2% dextrose) cultures were inoculated from glycerol stocks of the appropriate strain and grown at 30° C. with 250 rpm shaking. Once cultures had reached an OD600 of 4-6, cultures were centrifuged at 500×g for 5 min, supernatants were discarded, and cell pellets were resuspended in equal volume of water. Resuspended cells were centrifuged at 500×g for 5 min, supernatants were discarded, and cells were resuspended in a volume (75 μL×OD×Vculture) of transformation cocktail (45% PEG-400, 0.1 M LiAc, 0.1 M DTT, and 25 ug/100 μL SS Salmon Sperm DNA). For each transformation, >1 μg of plasmid DNA was added to 55 μL cells/transformation cocktail and vortexed for 2 s. Transformations were incubated at 39° C. for 1 h with 250 rpm shaking. Transformations were resuspended in 750 μL YPD with 1 M sorbitol and recovered at 30° C. overnight with 250 rpm shaking. The next day, transformations were centrifuged at 500×g for 5 min, supernatants were discarded, and cell pellets were resuspended in 750 YPD. Resuspended transformations were plated on YPD with appropriate selection or YNBD (6.71 g/L yeast nitrogen base+nitrogen, 0.5% casamino acids, 2% dextrose) agar plates and grown at 30° C. for 2 days. Individual colonies were patched onto YPD plates with appropriate selection or YNBD plates and grown at 30° C. overnight. Patches were used to inoculate 0.5 mL YPD with appropriate selection or YNBD precultures in 96 w blocks and grown at 30° C. for 24-48 h with 1000 rpm shaking. For assays, 0.5 mL YPD with appropriate selection or YNBD cultures containing substrate were inoculated with 2 μL from precultures and grown at 30° C. for 2-4 days with 1000 rpm shaking with 2% glucose added every 24 h. Assay cultures were quenched by addition of 0.5 mL ethanol with 0.2% formic acid and 0.5 mg/mL pentyl-benzoic acid. Precipitates were pelleted by centrifuging at 4600×g for 10 min and then 200 μL was transferred to fresh plates, sealed, and analyzed via HPLC.\n(§2) All samples were quenched with equal volume of EtOH containing 0.2 mg/mL internal standard (3,5-Diisopropyl-2-hydroxybenzoic acid CAS #2215-21-6) centrifuged, and clarified solutions were analyzed by HPLC-MS\n(§3) • Column: 2.1×50 mm COSMOCORE PBr (Nacalai USA, Inc.) • Mobile Phase: A; 0.1% formic acid in water, B; 0.1% formic acid in acetonitrile • Flow: 0.45 mL/min • Temp: % 50 Celsius • Gradient: 20%B at 0 min, 70%B at 2.3 min, 89% B at 4.2 min, 20% B at 4.3 min, 20%B at 6 min"}, "olivetolic acid [2]": {"system": "olivetolic acid", "test": "MPT4.1 with and without GPS1.1 fusion vs MPT4 fusion, in vivo assay (Example 5)", "conditions": "3 mM olivetolic acid, 48 h quench", "procedure": "As described below, plasmids pCL-SE-0337.MPT4.1 and pCL-SE-0753 were transformed into strain sCL-SE-0128. Multiple colonies per transformation were precultured for 24 h in YNB containing glucose (2%), casamino acids (0.5%), and MES (100 mM pH 6.5). Pre-culture was used to inoculate assay medium comprised of YNB containing glucose (6%), casamino acids (0.5%), MES (100 mM pH 6.5), and olivetolic acid (3 mM). Cultures were quenched with equal volume of ethanol after 48 h total growth and assayed for CBGA and FCBGA. Averages and standard deviations were calculated from replicates.\nas §1, §2, §3"}, "hexanoic acid": {"system": "hexanoic acid", "test": "GPS-PKC-MPT fusions, hexanoic acid feed in vivo assay (Example 13)", "conditions": "hexanoic acid 2.5 mM plus 5 mM after 24 h, 48 h quench; strain SB-00311 + pCL-SE-0274; average of 44 or 34 transformants", "procedure": "Strain SB-00311 (HCS2, PKS1.1 and PKC1.1) was co-transformed with 1) a construct (pCL-SE-0274) for expression of HMGR and GPS1.1 and 2) a construct (pCL-SE-0406) for expression of a fusion protein that contains, from N- to C-terminus, GPS1.1 and MPT4 linked using the F11 linker sequence or a construct (pCL-SE-0474) for expression of a fusion protein that contains, from N- to C-terminus, GPS1.1, PKC1.1 and MPT4, each linked using the F11 linker sequence.\nTransformants were assessed for CBGA production from hexanoic acid. Assay cultures consisted of YNBD+CAA media with 2.5 mM hexanoic acid. After 24 h, an additional 5 mM hexanoic acid was added to each assay culture. Cultures were quenched after 48 h total growth.\nOvernight YPD (10 g/L yeast extract, 20 g/L peptone, 2% dextrose) cultures were inoculated from glycerol stocks of the appropriate strain and grown at 30° C. with 250 rpm shaking. Once cultures had reached an OD600 of 4-6, cultures were centrifuged at 500×g for 5 min, supernatants were discarded, and cell pellets were resuspended in equal volume of water. Resuspended cells were centrifuged at 500×g for 5 min, supernatants were discarded, and cells were resuspended in a volume (75 μL×OD×Vculture) of transformation cocktail (45% PEG-400, 0.1 M LiAc, 0.1 M DTT, and 25 ug/100 μL SS Salmon Sperm DNA). For each transformation, >1 μg of plasmid DNA was added to 55 μL cells/transformation cocktail and vortexed for 2 s. Transformations were incubated at 39° C. for 1 h with 250 rpm shaking. Transformations were resuspended in 750 μL YPD with 1 M sorbitol and recovered at 30° C. overnight with 250 rpm shaking. […] Precipitates were pelleted by centrifuging at 4600×g for 10 min and then 200 μL was transferred to fresh plates, sealed, and analyzed via HPLC.\nAll samples were quenched with equal volume of EtOH containing 0.2 mg/mL internal standard (3,5-Diisopropyl-2-hydroxybenzoic acid CAS #2215-21-6) centrifuged, and clarified solutions were analyzed by HPLC-MS […]"}, "divarinic acid": {"system": "divarinic acid", "test": "MPT fusions with GPS1.1 vs unfused MPTs, DVA feed (Example 9, Table 11)", "conditions": "2 mM divarinic acid, 2% glucose, quenched after 48 h; strain sCL-SE-0128", "outline": "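Strain sCL-SE-0128 transformed with MPT or fused-MPT plasmids, several colonies each, precultured 48 h in YNB/glucose/casamino acids/MES pH 6.5. Assay medium carried 2 mM divarinic acid; cultures quenched with ethanol at 48 h total growth and CBGVA and FCBGVA quantified by HPLC-MS against internal standard, averaged over replicates.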"}, "[3]": {"conditions": "2% glycerol, strain sCL-SE-0128"}}}
{"molecule": "B1", "values": [{"measurement": "CBGA", "setting": "olivetolic acid [1]; [3]", "result": "376 ± 41", "unit": "µM"}, {"measurement": "FCBGA", "setting": "olivetolic acid [1]; [3]", "result": "51 ± 5", "unit": "µM"}, {"measurement": "CBGA/FCBGA", "setting": "olivetolic acid [1]; product ratio", "result": 7.4}, {"measurement": "CBGA", "setting": "olivetolic acid [2]; 6% glucose, strain sCL-SE-0128", "result": "326 ± 16", "unit": "µM"}, {"measurement": "FCBGA", "setting": "olivetolic acid [2]; 6% glucose, strain sCL-SE-0128", "result": "62 ± 2", "unit": "µM"}, {"measurement": "CBGA/FCBGA", "setting": "olivetolic acid [2]; product ratio", "result": 5.2}, {"measurement": "CBGA", "setting": "hexanoic acid", "result": "55.9 ± 26.4", "unit": "µM"}, {"measurement": "CBGVA", "setting": "divarinic acid", "result": "45 ± 2", "unit": "µM"}, {"measurement": "FCBGVA", "setting": "divarinic acid", "result": "0 ± 0", "unit": "µM"}]}
